Patent US20040259770A1, “Method for determining leukocyte activation” (Rush University Medical Center, priority 2003, published 2004)

Experiments:
Type in all cases: cell-based, human
eosinophils [1] = assay: Eosinophil superoxide production (cytochrome c reduction) in protein-coated tissue culture wells
Description: Neutrophils were isolated from venous blood of healthy adult volunteers by density gradient centrifugation through lymphocyte separation medium (BioWhittaker; Walkersville, Md.) as described previously (Haskell M. D., et al., Blood 86:4627-4637 (1995)) with one modification. Isotonicity was restored following the brief hypotonic lysis steps by the addition of 2× concentrated Hank's Balanced Salt Solution (HBSS) (Gibco; Grand Island, N.Y.) (without Ca^2+ and Mg^2+) containing 5 mM HEPES, pH 7.4. The cells were suspended in HEPES (10 mM)-buffered HBSS (with Ca^2+ and Mg^2+), pH 7.4, containing 1 milligram per milliliter of human serum albumin (HSA) (Sigma Chemical Co.) (HEPES-HBSS-HSA buffer). Neutrophil purity was routinely greater than 95 percent, with eosinophils representing the remainder of the cells. Eosinophils were isolated from the neutrophil preparations by negative selection (Hansel T. T., et al., J. Immunol. Meth. 145:105-10 (1991)) using anti-CD16 immunomagnetic beads as described by the manufacturer (Miltenyi Biotec, Inc., Auburn, Calif.). The eosinophils were suspended in HEPES-HBSS-HSA buffer. Eosinophil purity was routinely greater than 95 percent as determined by counting Wright-stained cytospin preparations. In some assays, an aliquot of the neutrophil preparation was held on ice for later use.
Superoxide production was measured essentially as described elsewhere (Motegi, Y., and H. Kita, J. Immunol. 161:4340 (1998)). Briefly, wells in a 96-well (flat bottom) tissue culture plate (Corning, Inc.; Corning, N.Y.) were coated with human milk lactoferrin (Sigma Chemical Co.) or human secretory IgA (ICN Biomedical; Aurora, Ohio) by incubation with 50 microliters of the indicated concentrations of the proteins in phosphate buffered saline (PBS) overnight at 4° C. Non-specific protein binding sites were blocked by subsequent incubation with 100 microliters of 25 milligrams per milliliter of HSA in PBS for 2 hours at 37° C., and the tissue culture wells were washed twice with PBS before use. Aliquots (5×10^4 cells) of eosinophils or neutrophils were added to the wells and were incubated in HEPES-HBSS—HSA buffer containing 50 micromolar cytochrome c (Sigma Chemical Co.) for 120 minutes at 37° C. in a Ceres UV900HDi microplate reader (Bio-Tek Instruments, Inc., Winooski, Vt.). Total incubation volume was 0.2 milliliters. Absorbance at 550 nanometers was recorded at 15-minute intervals, and superoxide production was calculated as described previously (Motegi, Y., and H. Kita, J. Immunol. 161:4340 (1998)). Results are expressed as nanomoles superoxide per 10^5 cells after subtraction of spontaneous production, which was measured in tissue culture wells coated only with HSA. GM-CSF (R & D Systems; Minneapolis, Minn.), porcine heparin (Sigma Chemical Co.), or chondroitin sulfate C (Sigma Chemical Co.) was added to the incubation mixtures in some assays as indicated.

neutrophils = assay: Neutrophil superoxide production (cytochrome c reduction) in protein-coated tissue culture wells
Description: Neutrophils were isolated from venous blood of healthy adult volunteers by density gradient centrifugation through lymphocyte separation medium (BioWhittaker; Walkersville, Md.) as described previously (Haskell M. D., et al., Blood 86:4627-4637 (1995)) with one modification. Isotonicity was restored following the brief hypotonic lysis steps by the addition of 2× concentrated Hank's Balanced Salt Solution (HBSS) (Gibco; Grand Island, N.Y.) (without Ca^2+ and Mg^2+) containing 5 mM HEPES, pH 7.4. The cells were suspended in HEPES (10 mM)-buffered HBSS (with Ca^2+ and Mg^2+), pH 7.4, containing 1 milligram per milliliter of human serum albumin (HSA) (Sigma Chemical Co.) (HEPES-HBSS-HSA buffer). […] Eosinophil purity was routinely greater than 95 percent as determined by counting Wright-stained cytospin preparations. […]
Superoxide production was measured essentially as described elsewhere (Motegi, Y., and H. Kita, J. Immunol. 161:4340 (1998)). […] Aliquots (5×10^4 cells) of eosinophils or neutrophils were added to the wells and were incubated in HEPES-HBSS—HSA buffer containing 50 micromolar cytochrome c (Sigma Chemical Co.) for 120 minutes at 37° C. in a Ceres UV900HDi microplate reader (Bio-Tek Instruments, Inc., Winooski, Vt.). […] Results are expressed as nanomoles superoxide per 10^5 cells after subtraction of spontaneous production, which was measured in tissue culture wells coated only with HSA. […]

eosinophils [2] = assay: Eosinophil degranulation: EDN release by ELISA; conditions: 3 to 100 micrograms per milliliter immobilized, 4 hours at 37° C, maximum at 100 micrograms per milliliter
Description: Eosinophils (2×10^5) were incubated in the presence and absence of 100 picograms per milliliter of GM-CSF in RPMI 1640 containing 1 milligram per milliliter of HSA for 4 hours at 37° C. in 5 percent CO2 in tissue culture wells precoated with lactoferrin or secretory IgA as above. Total incubation volume was 0.2 milliliters. Reactions were stopped by centrifugation at 300 g for 5 minutes at 4° C., and supernatants were stored at −20° C. until measurement of eosinophil-derived neurotoxin (EDN) content by specific ELISA (MBL International, Watertown, Mass.). Spontaneous release of EDN was determined with cells incubated in HSA-coated wells.

eosinophils [3] = assay: Eosinophil leukotriene C4 production by ELISA; conditions: 1 hour
Description: Eosinophils (2×10^5) were incubated in the presence and absence of 100 pg/ml GM-CSF in RPMI 1640 containing 10 mM HEPES for 1 hr at 37° C. in tissue culture wells precoated with lactoferrin or secretory IgA as above with one modification. The tissue culture wells were not treated with HSA and HSA was not added to the incubation buffer to minimize loss of leukotriene C4. Total incubation volume was 0.2 ml. Reactions were stopped by centrifugation at 300 g for 5 min at 4° C., and supernatants were stored at −20° C. until measurement of leukotriene C4 content by a leukotriene C4/D4/E4 ELISA (Amersham Pharmacia Biotech; Piscataway, N.J.). Spontaneous leukotriene C4 production was determined with eosinophils incubated in untreated tissue culture wells.

B1: immobilized lactoferrin: human milk lactoferrin (Sigma) coated on tissue culture wells overnight at 4° C (protein, UniProt P02788 20-710, looked up)
Lactotransferrin: GRRRSVQWCAVSQPEATKCFQWQRNMRKVRGPPVSCIKRDSPIQCIQAIAENRADAVTLDGGFIYEAGLAPYKLRPVAAEVYGTERQPRTHYYAVAVVKKGGSFQLNELQGLKSCHTGLRRTAGWNVPIGTLRPFLNWTGPPEPIEAAVARFFSASCVPGADKGQFPNLCRLCAGTGENKCAFSSQEPYFSYSGAFKCLRDGAGDVAFIRESTVFEDLSDEAERDEYELLCPDNTRKPVDKFKDCHLARVPSHAVVARSVNGKEDAIWNLLRQAQEKFGKDKSPKFQLFGSPSGQKDLLFKDSAIGFSRVPPRIDSGLYLGSGYFTAIQNLRKSEEEVAARRARVVWCAVGEQELRKCNQWSGLSEGSVTCSSASTTEDCIALVLKGEADAMSLDGGYVYTAGKCGLVPVLAENYKSQQSSDPDPNCVDRPVEGYLAVAVVRRSDTSLTWNSVKGKKSCHTAVDRTAGWNIPMGLLFNQTGSCKFDEYFSQSCAPGSDPRSNLCALCIGDEQGENKCVPNSNERYYGYTGAFRCLAENAGDVAFVKDVTVLQNTDGNNNEAWAKDLKLADFALLCLDGKRKPVTEARSCHLAMAPNHAVVSRMDKVERLKQVLLHQQAKFGRNGSDCPDKFCLFQSETKNLLFNDNTECLARLHGKTTYEKYLGPQYVAGITNLKKCSTSPLLEACEFLRK
modifications: immobilized
notes: human milk lactoferrin (Sigma) coated on tissue culture wells overnight at 4° C
stimulation of eosinophil superoxide production (in words) (eosinophils [1]; 1 to 100 micrograms per milliliter of the protein, 2 hours at 37° C): stimulated marked superoxide production
concentration giving maximum (peak) superoxide production (eosinophils [1]; 2-hour time point, absence of GM-CSF): 30 micrograms per milliliter
superoxide production with immobilized lactoferrin and immobilized secretory IgA in combination (eosinophils [1]; 3 or 10 micrograms per milliliter lactoferrin plus 1 or 3 micrograms per milliliter secretory IgA, n=4): additive levels of superoxide production
maximum response of superoxide production (eosinophils [1]; 30 micrograms per milliliter immobilized, 2-hour time point, five assays, corrected for spontaneous production): approximately 5 nanomoles superoxide per 10^5 eosinophils
eosinophil superoxide production (eosinophils [1]; 30 micrograms per milliliter immobilized, Example 3 assays (same donors as neutrophils), spontaneous value subtracted): 5.5±1.4 nanomoles per 10^5 eosinophils
stimulation of eosinophil superoxide production (in words) (eosinophils [1]; immobilized at concentrations less than 3 micrograms per milliliter): did not appear to stimulate superoxide production
potency relative to immobilized secretory IgA (eosinophils [1]; superoxide production, same assays): approximately one-third
stimulation of neutrophil superoxide production (in words) (neutrophils; 1 to 100 micrograms per milliliter immobilized, up to 2 hours): did not produce significant superoxide production
neutrophil superoxide production as percent of eosinophil superoxide production stimulated by 30 micrograms per milliliter immobilized lactoferrin (neutrophils; 100 microgram per milliliter immobilized lactoferrin): 25%
net release of EDN (eosinophils [2]): ≤ 1000 nanograms of EDN per 10^6 eosinophils
leukotriene C4 production (in words) (eosinophils [3]; 3 to 100 micrograms per milliliter immobilized, no GM-CSF): stimulated only low levels of leukotriene C4
leukotriene C4 production (eosinophils [3]; 10 micrograms per milliliter immobilized lactoferrin alone): 115 picograms leukotriene C4 per 10^6 eosinophils
leukotriene C4 production (eosinophils [3]; 10 micrograms per milliliter immobilized lactoferrin together with 100 picograms per milliliter GM-CSF): 955 picograms leukotriene C4 per 10^6 eosinophils
